From patent US20200199241A1 (Chugai, published 2020)
Residue numbers refer to the chain shown, from its start.

B1: IgG1-F641 (antibody)
heavy: QVQLQESGPGLVKPSETLSLTCAVSGHSISHDHAWSWVRQPPGEGLEWIGFISYSGITNYNPSLQGRVTISRDNSKNTLYLQMNSLRAEDTAVYYCARSLARTTAMDYWGEGTLVTVSSASTKGPSVFPLAPSSKSTSGGTAALGCLVKDYFPEPVTVSWNSGALTSGVHTFPAVLQSSGLYSLSSVVTVPSSSLGTQTYICNVNHKPSNTKVDKKVEPKSCDKTHTCPPCPAPELLGGPSVFLFPPKPKDTLYISRTPEVTCVVVDVSHEDPEVKFNWYVDGVEVHNAKTKPREEQYNSTYRVVSVLTPLHQDWLNGKEYKCKVSNKALPAPIEKTISKAKGQPREPQVYTLPPSRDELTKNQVSLTCLVKGFYPSDIAVEWESNGKPENNYKTTPPVLDSDGSFFLYSKLTVDKSRWQQGNVFSCSVMHEALHYHYTQKSLSLSP
light: not shown
notes: EU numbering; copies: 2 + 2
B2: IgG1-F660 (antibody)
heavy: B1 heavy with S241K, P331K, K388Q
light: not shown
notes: EU numbering; copies: 2 + 2
B3: IgG1-F657 (antibody)
heavy: B1 heavy with G239R, S241K, K388Q
light: not shown
notes: EU numbering; copies: 2 + 2
B4: IgG1-F642 (antibody)
heavy: B1 heavy with S241K
light: not shown
notes: EU numbering; copies: 2 + 2
B5: IgG1-F651 (antibody)
heavy: B1 heavy with S241K, P310V, Q313A, K388Q
light: not shown
notes: EU numbering; copies: 2 + 2
B6: IgG1-F663 (antibody)
heavy: B1 heavy with S241K, N288E, T309Q, Q313A, K388Q
light: not shown
notes: EU numbering; copies: 2 + 2
B7: IgG1-F665 (antibody)
heavy: B1 heavy with N288D, K388Q
light: not shown
notes: EU numbering; copies: 2 + 2
B8: IgG1-F652 (antibody)
heavy: B1 heavy with P240D, P310V, K388Q
light: not shown
notes: copies: 2 + 2
B9: IgG1-F664 (antibody)
heavy: B1 heavy with N288A, K388Q
light: not shown
notes: EU numbering; copies: 2 + 2
B10: IgG1-F661 (antibody)
heavy: B1 heavy with S241K, P331R, K388Q
light: not shown
notes: EU numbering; copies: 2 + 2
B11: IgG1-F646 (antibody)
heavy: B1 heavy with S241K, N299A, K388Q
light: not shown
notes: EU numbering; copies: 2 + 2
B12: IgG1-F656 (antibody)
heavy: B1 heavy with G239K, S241K, K388Q
light: not shown
notes: EU numbering; copies: 2 + 2
B13: IgG1-F659 (antibody)
heavy: B1 heavy with P240R, S241K, K388Q
light: not shown
notes: EU numbering; copies: 2 + 2
B14: IgG1-F650 (antibody)
heavy: B1 heavy with S241K, T258E, P310V, K388Q
light: not shown
notes: EU numbering; copies: 2 + 2
B15: IgG1-F643 (antibody)
heavy: B1 heavy with L237G, G238R, S241K, K388Q
light: not shown
notes: EU numbering; copies: 2 + 2
B16: IgG1-F654 (antibody)
heavy: B1 heavy with L237K, S241K, K388Q
light: not shown
notes: EU numbering; copies: 2 + 2
B17: IgG1-F658 (antibody)
heavy: B1 heavy with P240K, S241K, K388Q
light: not shown
notes: EU numbering; copies: 2 + 2
B18: IgG1-F645 (antibody)
heavy: B1 heavy with S241K, L330R, K388Q
light: not shown
notes: EU numbering; copies: 2 + 2
B19: IgG1-F644 (antibody)
heavy: B1 heavy with G238R, S241K, K388Q
light: not shown
notes: EU numbering; copies: 2 + 2
B20: IgG1-F647 (antibody)
heavy: B1 heavy with P240D, K388Q
light: not shown
notes: EU numbering; copies: 2 + 2
B21: IgG1-F655 (antibody)
heavy: B1 heavy with L237R, S241K, K388Q
light: not shown
notes: EU numbering; copies: 2 + 2
B22: IgG1-F649 (antibody)
heavy: B1 heavy with S241K, N288E, P310V, K388Q
light: not shown
notes: EU numbering; copies: 2 + 2

Each binder was assayed against T1, human FcRn (soluble human FcRn complexed with β2-microglobulin) (human, UniProt P61769 21-119, limits assumed) (assay: SPR, pH 7.0;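 also: antibodies captured on a Protein L sensor chip with human FcRn injected as analyte, KD calculated from fitted association and dissociation rate constants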).
T1 construct: also called hFcRn

Kd	Binder
30 nM	B1
31 nM	B2
32 nM	B3
30 nM	B4
180 nM	B5
6.4 nM	B6
20 nM	B7
240 nM	B8
39 nM	B9
34 nM	B10
38 nM	B11
33 nM	B12
30 nM	B13
170 nM	B14
32 nM	B15
32 nM	B16
32 nM	B17
33 nM	B18
30 nM	B19
29 nM	B20
34 nM	B21
120 nM	B22
